# Measurements published in the supplement of paper PMC12042874.
# ± gives the uncertainty stated by the source.
# Test: amyloid nucleation score (Sup35N fusion, yeast selection) (log enrichment); library NNK2; higher = more nucleation; inactive = no reads after selection
# Outline: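 Psi-negative yeast expressed Sup35N fused to peptides of 20 random codons. They were induced 24 hours with 100 μM copper sulfate, grown 7 days at 30°C without adenine and uracil, and their plasmid inserts from input and output were Illumina-sequenced. The nucleation score is the DiMSum log enrichment of output over input reads, centred on the mode score of non-aggregating sequences. Sequences with under 100 input reads were excluded.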
row,Substance,amyloid nucleation score
1,IYPDKSFMALFPMVIDFYTQ,-2.19 ± 0.62
2,IYQPCCCV,0.76 ± 0.51
3,IYRCIYRTPMLLGLYFNGPV,-0.791 ± 0.55
4,IYVRLLDSDTSYWVQFVFLQ,inactive
5,KADLRKHSLDIGSCADGIRI,0.416 ± 0.8
6,KAGVKLSLGNCRYSTL,0.527 ± 0.8
7,KAHIAVDGIMA,0.117 ± 0.33
8,KATPFAGTLRVYSTVTYCAI,0.148 ± 1
9,KAWLSSKITKM,0.131 ± 1
10,KAYLCSFMMCFLL,6.803 ± 0.056
11,KCLVSMVLMYAVTMIWDAPD,1.35 ± 0.3
12,KCMQLAAFTRLLWTGPSARG,1.85 ± 0.1
13,KCVLLWWVIKYVCVDTDAAV,-0.174 ± 0.74
14,KDDSQLVLRDRPSRLWRLKE,0.804 ± 0.53
15,KDGLTISRIQITLIKRTLVV,0.035 ± 0.74
16,KDHRSLSGRDMFRGTLVVVM,0.328 ± 0.19
17,KDPLIRDVLDNANQRLVNSV,inactive
18,KDRSQGKCLLGQQRQ,0.782 ± 0.15
19,KDWRGMEDFMSVFFRSGLGS,inactive
20,KEPGERRYGTAASMNYTKVD,-0.71 ± 1
21,KEPYHNYI,0.179 ± 0.56
22,KERAYRGNQAKKRLKTALFY,inactive
23,KERLAFCMYGLGVDYVTFGN,0.497 ± 0.57
24,KERNRRAEAGSYNYVGVWVT,0.951 ± 0.81
25,KFAKSSNKDHHDFYAVELGT,-0.289 ± 0.63

row,Substance,amyloid nucleation score
1,KFFMPTYN,1.58 ± 0.17
2,KFMCSELSNFCINCILRLVV,-0.19 ± 1.1
3,KGCVMSY,-0.578 ± 1.1
4,KGFRMRAWWRVGVLDCDAGT,0.082 ± 1.1
5,KGGWYNNYGAVNKNGWCSDK,-0.501 ± 1.1
6,KGLASKAHSIGLCT,1.01 ± 0.25
7,KGNTIKSCSRMMLHRQHVW,-0.485 ± 0.45
8,KHEIQVS,0.33 ± 0.56
9,KHGSMVICKPAIYTVLT,-0.021 ± 0.63
10,KHYAL,0.169 ± 0.8
11,KIIVHYIYRRIRLCDSNLKR,8.398 ± 0.046
12,KILALATRLKIFSSLVYIRS,0.338 ± 0.51
13,KILRVKRQGRGSRNR,-0.055 ± 0.55
14,KINIKGFSSYAGRYHTRKIW,inactive
15,KISCKKNWGAYVPF,-0.594 ± 1.1
16,KITAGSGVL,0.904 ± 0.81
17,KIVVSFWLLPCFGKLFFPSV,-0.618 ± 0.76
18,KKEVINWYFLTYAGLEKLCL,-0.715 ± 0.48
19,KKSFGLLENIMVSDLFPNSS,inactive
20,KKSSECHKSEG,0.361 ± 0.45
21,KLCKVYVRRRSIICWGNCVP,-0.481 ± 1.1
22,KLDTLRFCVGAHLGTPTLCW,0.499 ± 0.34
23,KLDVAAFVKVAE,6.142 ± 0.039
24,KLFFTDGFLYGNPLLSDGLD,-0.58 ± 0.39
25,KLHRSESVHVICTVCS,1.17 ± 0.3

row,Substance,amyloid nucleation score
1,KLHVGNCSFSKPSPAQAGSL,0.34 ± 0.29
2,KLIMFCDMLKVRSNNFRSRK,5.55 ± 0.077
3,KLISCGCVLADWNMGYP,3.76 ± 0.12
4,KLLFCERGKSGSNQSSLTKT,-0.523 ± 0.54
5,KLNLMCWDGLYLDMKIDSNL,3.94 ± 0.07
6,KLNNVRLGGERFDLRTLGLR,-0.104 ± 0.42
7,KLRPNLCKHYMTFMETSS,0.175 ± 0.53
8,KLWAPWYNLWLFALTIVCDI,0.343 ± 0.64
9,KNCFMIV,-2.26 ± 1
10,KNDFLNM,inactive
11,KNDGEVMKSVFKDRHCCART,-0.565 ± 0.48
12,KNKQRYSPIITLLVTKSVAF,2.67 ± 0.056
13,KNLVDWVYYPPMH,-1.23 ± 0.62
14,KPFELEIRGKGQRHVEVV,1.61 ± 0.26
15,KPHRIENGSTREDEEG,0.747 ± 0.31
16,KQEHSYYNLDDLGHRGSEGA,-0.536 ± 1.1
17,KRGKMHYCKFAHAAITVTQL,-0.515 ± 0.43
18,KRIIFALL,-0.337 ± 0.48
19,KRILQMDHRLLNHNSELLKR,-0.397 ± 0.45
20,KRINCPKFSNGQYGLS,inactive
21,KRRSLGLLISLVTMGDK,0.917 ± 0.31
22,KRSMKESWVYNLCNRVYCKG,0.467 ± 0.8
23,KRVFAKVTVMDHSNSG,inactive
24,KRWIT,-0.65 ± 0.55
25,KSAQEF,0.839 ± 0.43

row,Substance,amyloid nucleation score
1,KSCGRLAAEYSPPRMACGHD,1.18 ± 0.41
2,KSEAGYA,0.658 ± 0.51
3,KSEVWSYLI,4.51 ± 0.061
4,KSFSCVCPWFGH,10.32 ± 0.031
5,KSLNDDVKLKNKGSSPSAPW,inactive
6,KSMKEFSKFVLMSAP,0.192 ± 0.46
7,KSQILACYNQLP,0.83 ± 0.48
8,KSRFML,0.627 ± 0.57
9,KSRPSTV,-1.68 ± 1
10,KSRVVMRTHAHSALWKWPGR,1.64 ± 0.28
11,KSSVELWTFERA,1.14 ± 0.33
12,KSTGDCFLKMINYYCGWS,6.066 ± 0.052
13,KSVASVMVYYALRIPYHIEC,inactive
14,KSYMARMWYMVRLMLTCLDY,0.741 ± 0.47
15,KTAVSNVRCMY,-0.227 ± 0.62
16,KTIVSYV,inactive
17,KTLRCQRMVGYWGIRVDLGR,1.31 ± 0.42
18,KTNVMERCHFQRILCFGMW,inactive
19,KTYGGLLSLPVVLRMLEPRA,0.319 ± 0.61
20,KVALL,-0.257 ± 0.76
21,KVELYYWVSTLSVCSLALYS,6.07 ± 0.084
22,KVISSVSEPLSKKEDYE,-0.706 ± 0.3
23,KVKGLILDHDYRFRI,inactive
24,KVKSLYLSMVQGWMFYV,-0.425 ± 0.24
25,KVPDKGEKLCSLLAFGYQG,0.736 ± 0.8

row,Substance,amyloid nucleation score
1,KVSWEDSFLFLCQCRRDCTL,8.707 ± 0.039
2,KVTARPFRQC,4.997 ± 0.045
3,KVVCLMVISCCLPLAPHRGW,3.53 ± 0.11
4,KVVGGLVLHGSL,inactive
5,KVYATVDFDLLGQAPTSAMN,4.83 ± 0.091
6,KWMLHSVR,0.772 ± 0.22
7,KYFVTNRVVWTDRVSIFGV,1.07 ± 0.53
8,KYMRLSSPAGSAVPLWTLYL,0.148 ± 1
9,KYRCLLRATPFDKEVGSTRF,-0.753 ± 1
10,KYVSCNLLIGWYTLFSFYPF,-0.649 ± 0.4
11,KYWFDGYLGYF,-1.14 ± 0.29
12,LAAVLVHAWFVKRLRMPNHH,0.93 ± 0.44
13,LACTKQFQVAVVFPDYTFIA,3.71 ± 0.064
14,LAFAILFPFGSLRDGST,0.585 ± 0.8
15,LAFFGVLSSFYSRFGIKTKM,-1.83 ± 0.54
16,LAFMRLPAVVLSSTLSFMKS,0.789 ± 0.66
17,LAHHMF,0.429 ± 0.8
18,LAIVLRGNFTIVSTAIE,3.26 ± 0.1
19,LALFALMLLLF,-0.055 ± 0.26
20,LAMEWSRCRTGPL,1.68 ± 0.15
21,LARASKHCSEVLGDCLA,0.366 ± 0.8
22,LARCGPKLW,3.43 ± 0.07
23,LARYFAKKLYNFYFLAFTGW,1.14 ± 0.29
24,LASMMPSKIPN,inactive
25,LATKMSRGYSIRDWS,0.052 ± 0.24

row,Substance,amyloid nucleation score
1,LAVKRMFSNFIFKAGTRNIW,inactive
2,LAYLSLICFCVDSPTQVGLM,10.11 ± 0.038
3,LCAGGVGRRWLVLDTAECDG,0.59 ± 0.64
4,LCCLMDFMITNLITFQRMTS,4.33 ± 0.11
5,LCEEICLDFFMVRMFKHASY,1.63 ± 0.11
6,LCGNRGFYDH,-0.177 ± 0.54
7,LCIEMD,0.566 ± 0.38
8,LCPYR,-0.776 ± 1.1
9,LCSCANCLYSFFTG,8.04 ± 0.023
10,LCWFAMLEYVWDGHAVGDSI,4.06 ± 0.061
11,LCWFSNRSRLEEVS,inactive
12,LCYFCISGDRHSLEVKTLVT,-0.527 ± 0.4
13,LCYWCTCR,0.141 ± 0.41
14,LCYWPYDSVYLLTRFTVNGF,-0.349 ± 0.25
15,LDEPRM,0.16 ± 0.24
16,LDGFLLSISLRINKRLSSGR,4.79 ± 0.061
17,LDIITGLSSISGTHIFGSSP,-0.627 ± 0.78
18,LDINIFM,-0.304 ± 1.1
19,LDLSDHWACQIIGVL,0.394 ± 0.43
20,LDMITTINS,-1.6 ± 0.54
21,LDRDVVYTCVDCVFGVGILK,-1.19 ± 0.75
22,LDRSRTKSWLGDFWG,-0.074 ± 0.46
23,LDRYLG,0.064 ± 0.3
24,LDSGHNGDVNGG,-0.45 ± 0.64
25,LDSVQWNGCMIRYSYLGMGW,-0.138 ± 0.3

row,Substance,amyloid nucleation score
1,LDSWRPN,-0.393 ± 0.39
2,LDVAGKVKASHKLRAWVWFS,0.436 ± 0.8
3,LDVTHN,0.6 ± 0.35
4,LDVVWSRVVRCRCVSWGNSL,0.054 ± 0.65
5,LDYRPCEDNDDVDVSEILHG,0.224 ± 0.25
6,LECRLC,0.308 ± 0.25
7,LECVT,0.078 ± 0.74
8,LEGFTRA,-0.909 ± 0.36
9,LEGMFLPGFFSCVRFLWL,-1.51 ± 0.78
10,LELHGT,-1.22 ± 0.45
11,LELKFFHHPSPCFYNITQSA,3.76 ± 0.092
12,LELLSLIFSFG,2.13 ± 0.18
13,LELMEYPL,-0.153 ± 0.45
14,LEMFYRVPLPRCKTYLQFRC,0.471 ± 0.62
15,LENWSNMGENCSTVDRPNLF,-0.4 ± 1.1
16,LETGNRRHTEYLCYDVWVIL,0.394 ± 0.39
17,LEWLFA,0.155 ± 1.1
18,LFCTFKLRAMTFTSNKSRVV,1.04 ± 0.43
19,LFDSCSDSRMFNWMGPSNGQ,inactive
20,LFDVMIQTRCLYHWNSPHNL,5.14 ± 0.065
21,LFEFSFITPYGV,-0.531 ± 0.44
22,LFEMC,0.443 ± 0.26
23,LFFFSGRWKVNGGIVDGCGV,0.166 ± 0.45
24,LFGTNFYVQDNIVKGRVLIM,inactive
25,LFIDDVPVDSITYGIWARGC,-1.5 ± 1.1
